Experimental data taken from patent publication US6960343B2, “Toll/interleukin-1 receptor adapter protein (TIRAP)” (Yale University School of Medicine, priority 2001, dated 2005).

Legend:
IL-1R = biological target: T1, IL-1R (Homo sapiens, UniProt P14778); assay: IL-1R-induced NF-κB activity, luciferase reporter, 293T cells; assay type: cell-based
T1 construct: expressed in transfected cells; host or cells: 293T cells
T1 sequence (P14778 18-569): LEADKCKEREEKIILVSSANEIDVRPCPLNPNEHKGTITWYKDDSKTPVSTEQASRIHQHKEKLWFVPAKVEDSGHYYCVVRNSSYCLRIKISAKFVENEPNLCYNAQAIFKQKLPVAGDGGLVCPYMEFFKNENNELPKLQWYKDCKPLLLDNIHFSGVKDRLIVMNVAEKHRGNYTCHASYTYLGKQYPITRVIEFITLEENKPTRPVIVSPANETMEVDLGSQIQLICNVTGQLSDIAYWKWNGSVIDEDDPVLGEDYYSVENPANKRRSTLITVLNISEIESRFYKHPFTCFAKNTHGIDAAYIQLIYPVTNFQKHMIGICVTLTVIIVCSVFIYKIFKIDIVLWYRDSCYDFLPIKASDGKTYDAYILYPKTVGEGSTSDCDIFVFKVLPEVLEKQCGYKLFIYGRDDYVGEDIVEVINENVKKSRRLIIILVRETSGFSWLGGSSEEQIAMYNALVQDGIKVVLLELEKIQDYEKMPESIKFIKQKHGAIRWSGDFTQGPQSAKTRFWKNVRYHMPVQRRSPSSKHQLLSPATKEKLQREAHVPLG
T1 sequence (Q9NPH3 21-570 partner): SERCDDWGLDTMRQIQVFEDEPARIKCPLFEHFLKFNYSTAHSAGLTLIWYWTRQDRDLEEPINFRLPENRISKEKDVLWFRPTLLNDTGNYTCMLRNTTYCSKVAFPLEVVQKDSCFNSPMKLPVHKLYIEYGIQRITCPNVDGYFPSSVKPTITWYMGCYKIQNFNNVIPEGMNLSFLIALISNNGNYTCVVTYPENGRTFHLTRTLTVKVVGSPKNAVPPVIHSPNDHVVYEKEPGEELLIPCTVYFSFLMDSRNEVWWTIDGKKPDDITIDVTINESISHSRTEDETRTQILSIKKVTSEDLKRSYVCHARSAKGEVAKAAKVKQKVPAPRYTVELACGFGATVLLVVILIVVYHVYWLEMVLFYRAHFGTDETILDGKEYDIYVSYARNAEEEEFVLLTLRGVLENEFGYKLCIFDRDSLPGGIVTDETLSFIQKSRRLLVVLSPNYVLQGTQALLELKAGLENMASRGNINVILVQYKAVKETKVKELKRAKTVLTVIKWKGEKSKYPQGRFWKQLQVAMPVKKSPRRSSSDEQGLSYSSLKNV
Procedure: Unlike TLR4, neither IL-1R nor TLR9 can induce NF-κB in the absence of MyD88 (Kawai 1999; Schnare 2000; Adache 1998). To assess the possibility that TIRAP is the putative adapter in the MyD88-independent signaling pathway, we tested TIRAP P125H for its ability to inhibit NF-κB activity induced y IL-1R and TLR9. 293T cells were co-transfected with either vector alone (pcDNA3), IL-1R (0.1 μg), and IL-1R AcP (0.1 μg) [Dr. Medzhitov: Please indicate what the IL-1R AcP construct encodes] plasmid cDNAs, with or without increasing concentrations (10 ng, 50 ng, 200 ng) of TIRAP P125H plasmid and the NF-κB-dependent luciferase reporter gene.

TLR9 = biological target: T2, TLR9 (Homo sapiens, UniProt Q9NR96); assay: NF-κB activation by CpG stimulation of TLR9-transfected 293T cells; assay type: cell-based; details: 100 ng, 250 ng construct, CpG 3 μM
T2 construct: TLR9 (encodes full length TLR9); expressed in transfected cells; host or cells: 293T cells
T2 sequence (Q9NR96 26-1032): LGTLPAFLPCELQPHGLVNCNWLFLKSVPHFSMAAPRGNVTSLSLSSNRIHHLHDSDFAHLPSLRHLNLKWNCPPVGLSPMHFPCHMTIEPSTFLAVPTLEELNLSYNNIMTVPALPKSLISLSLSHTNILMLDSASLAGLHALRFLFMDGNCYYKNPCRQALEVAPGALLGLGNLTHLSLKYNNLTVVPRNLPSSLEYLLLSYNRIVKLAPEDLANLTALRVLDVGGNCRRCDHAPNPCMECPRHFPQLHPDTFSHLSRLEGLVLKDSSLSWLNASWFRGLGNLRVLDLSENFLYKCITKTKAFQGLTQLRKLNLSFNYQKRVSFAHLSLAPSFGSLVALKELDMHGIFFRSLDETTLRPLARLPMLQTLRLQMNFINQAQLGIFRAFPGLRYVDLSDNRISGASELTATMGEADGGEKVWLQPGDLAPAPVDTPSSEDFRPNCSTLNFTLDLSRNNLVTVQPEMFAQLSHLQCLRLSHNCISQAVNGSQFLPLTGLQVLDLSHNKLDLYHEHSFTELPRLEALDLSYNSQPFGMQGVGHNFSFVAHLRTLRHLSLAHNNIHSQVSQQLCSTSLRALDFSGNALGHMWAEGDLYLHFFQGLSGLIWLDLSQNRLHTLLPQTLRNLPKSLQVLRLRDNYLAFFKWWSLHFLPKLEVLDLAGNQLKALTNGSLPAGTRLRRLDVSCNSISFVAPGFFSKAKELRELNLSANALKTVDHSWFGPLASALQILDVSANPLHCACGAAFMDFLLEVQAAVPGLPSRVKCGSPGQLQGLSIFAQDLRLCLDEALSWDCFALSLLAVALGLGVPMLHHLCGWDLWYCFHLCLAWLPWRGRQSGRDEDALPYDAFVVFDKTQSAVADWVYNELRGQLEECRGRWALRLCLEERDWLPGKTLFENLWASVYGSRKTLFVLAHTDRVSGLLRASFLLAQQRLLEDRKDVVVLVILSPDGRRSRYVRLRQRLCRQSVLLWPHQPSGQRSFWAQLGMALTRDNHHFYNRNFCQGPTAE
Procedure: To determine whether TIRAP inhibits NF-κB activation induced by CpG-stimulation of TLR9-transfected cells, 293T cells were transfected with vector alone (pcDNA3), TLR9 (50 ng), with or without increasing concentrations (100 ng, 250 ng) of either TIRAP P125H or MyD88 DN. At twenty-four h post transfection, CpG oligonucleotides were added at 3 μM final concentration to TLR9-transfected samples and incubated for 14 more hours before harvesting. […] Thus, TIRAP appears to function downstream of TLR4 but not IL-1R or TLR9, and is likely to be the adapter in the MyD88-independent pathway downstream of TLR4.

TIRAP P125H: vector encoding a mutant form of TIRAP containing a proline to histidine mutation at amino acid position 125
did not inhibit: inhibition of NF-κB activity induced by IL-1B cytokine (IL-1R) | inhibition of NF-κB activity induced by co-transfected IL-1R and IL-1R AcP (IL-1R; 293T cells, 10 ng, 50 ng, 200 ng plasmid) | inhibition of NF-κB activation induced by CpG-stimulation of TLR9-transfected cells (TLR9)
